Assay results from patent US9708383 (Novo Nordisk, dated 2017).
*1 amine or outer side, *2 acyl side, *3 side chain or, on linkers, in order; H or OH if unused. Where no end group is shown, it is not given here. Side-chain parts run from the residue outwards. [ ]: non-standard residue; d: D form. The star is where a group is joined. Decanoyl(10-(4-HOOC-PhO)) = O=C(O)c1ccc(OCCCCCCCCCC(=O)*)cc1; C16 diacid = O=C(O)CCCCCCCCCCCCCCC(=O)*; γGlu = O=C(O)[C@H](CCC(=O)[*:2])N[*:1]; 13‑carboxytridecanoyl = C14 diacid; AEEA = NCCOCCOCC(=O)O; Aib = CC(C)(N)C(=O)O

How the values were obtained:
human GLP-1 receptor [1] = target: T1, human GLP-1 receptor (human, UniProt P43220 24-463); experiment: SPA, 2.0% vs 0.005% HSA
T1 construct: whole, on cells; Used as purified membranes of the transfected hamster cells, not whole cells; also called hGLP-1

human GLP-1 receptor [2] = target: T1, human GLP-1 receptor; experiment: SPA, displacement of 125I-GLP-1(7-36)NH2, 0.005% HSA

ratio IC50 high HSA/IC50 low HSA (human GLP-1 receptor [1])	IC50 (human GLP-1 receptor [2]) [nM]	Binder
> 1	< 1000	H[Aib]EGTFTSDVSK([AEEA-AEEA-AEEA-AEEA-γGlu-13‑carboxytridecanoyl])YLEEQAVREFIAK([AEEA-AEEA-AEEA-AEEA-γGlu-13‑carboxytridecanoyl])LVRGRG [GLP-1 derivative of Example 130: [Aib8,Lys18,Glu22,Val25,Arg26,Lys31,Arg34]-GLP-1-(7-37)-peptide]
> 1	< 1000	H[Aib]EGTFTSDVSK([AEEA-AEEA-AEEA-AEEA-γGlu-C16 diacid])YLEEQAVREFIAK([AEEA-AEEA-AEEA-AEEA-γGlu-C16 diacid])LVRGRG-NH2 (N-terminus assumed; SMILES CC[C@H](C)[C@H](NC(=O)[C@H](Cc1ccccc1)NC(=O)[C@H](CCC(=O)O)NC(=O)[C@H](CCCNC(=N)N)NC(=O)[C@@H](NC(=O)[C@H](C)NC(=O)[C@H](CCC(N)=O)NC(=O)[C@H](CCC(=O)O)NC(=O)[C@H](CCC(=O)O)NC(=O)[C@H](CC(C)C)NC(=O)[C@H](Cc1ccc(O)cc1)NC(=O)[C@H](CCCCNC(=O)COCCOCCNC(=O)COCCOCCNC(=O)COCCOCCNC(=O)COCCOCCNC(=O)CC[C@H](NC(=O)CCCCCCCCCCCCCCC(=O)O)C(=O)O)NC(=O)[C@H](CO)NC(=O)[C@@H](NC(=O)[C@H](CC(=O)O)NC(=O)[C@H](CO)NC(=O)[C@@H](NC(=O)[C@H](Cc1ccccc1)NC(=O)[C@@H](NC(=O)CNC(=O)[C@H](CCC(=O)O)NC(=O)C(C)(C)NC(=O)[C@@H](N)Cc1c[nH]cn1)[C@@H](C)O)[C@@H](C)O)C(C)C)C(C)C)C(=O)N[C@@H](C)C(=O)N[C@@H](CCCCNC(=O)COCCOCCNC(=O)COCCOCCNC(=O)COCCOCCNC(=O)COCCOCCNC(=O)CC[C@H](NC(=O)CCCCCCCCCCCCCCC(=O)O)C(=O)O)C(=O)N[C@@H](CC(C)C)C(=O)N[C@H](C(=O)N[C@@H](CCCNC(=N)N)C(=O)NCC(=O)N[C@@H](CCCNC(=N)N)C(=O)NCC(N)=O)C(C)C)
> 1	< 1000	H[Aib]EGTFTSDVSK([AEEA-AEEA-γGlu-Decanoyl(10-(4-HOOC-PhO))])YLEGQAAK([AEEA-AEEA-γGlu-Decanoyl(10-(4-HOOC-PhO))])EFIAWLVHGRG [GLP-1 derivative of Example 142: [Aib8,Lys18,His34]-GLP-1-(7-37)-peptide]
> 1	< 1000	H[Aib]EGTFTSDVSK([AEEA-AEEA-γGlu-13‑carboxytridecanoyl])YLEGQAAK([AEEA-AEEA-γGlu-13‑carboxytridecanoyl])EFIAWLVQGRG [GLP-1 derivative of Example 141: [Aib8,Lys18,Gln34]-GLP-1-(7-37)-peptide]
> 1	< 1000	H[Aib]EGTLTSDVSK([AEEA-AEEA-γGlu-Decanoyl(10-(4-HOOC-PhO))])YLEGQAAK([AEEA-AEEA-γGlu-Decanoyl(10-(4-HOOC-PhO))])EFIAWLVQGRG [GLP-1 derivative of Example 139: [Aib8,Leu12,Lys18,Gln34]-GLP-1-(7-37)-peptide]
> 1	< 1000	H[Aib]EGTFTSDVSK([AEEA-AEEA-AEEA-AEEA-AEEA-AEEA-γGlu-13‑carboxytridecanoyl])YLEEQAVREFIAK([AEEA-AEEA-AEEA-AEEA-AEEA-AEEA-γGlu-13‑carboxytridecanoyl])LVRGRG [GLP-1 derivative of Example 131: [Aib8,Lys18,Glu22,Val25,Arg26,Lys31,Arg34]-GLP-1-(7-37)-peptide]
> 1	< 1000	H[Aib]EGTFTSDVSK([AEEA-AEEA-γGlu-γGlu-C16 diacid])YLEEQAVREFIAK([AEEA-AEEA-γGlu-γGlu-C16 diacid])LVRGRG [GLP-1 derivative of Example 134: [Aib8,Lys18,Glu22,Val25,Arg26,Lys31,Arg34]-GLP-1-(7-37)-peptide]
> 1	< 1000	H[Aib]EGTFTSDVSKYLEEQAVREFIAKLVRGRG (not fully specified (residues 12, 25)) [GLP-1 derivative of Example 137: [Aib8,Lys18,Glu22,Val25,Arg26,Lys31,Arg34]-GLP-1-(7-37)-peptide]
